{
  "source": "patent US20160362487A1",
  "about": "(Regeneron, published 2016)",
  "key": {"[1]": {"target": "T1, human IL-33 (R&D Systems, #3625-IL-010/CF) (human, UniProt O95760 112-270)", "T1 construct": "Commercial recombinant protein; also called hIL-33; interleukin-33", "T1 sequence (looked up)": "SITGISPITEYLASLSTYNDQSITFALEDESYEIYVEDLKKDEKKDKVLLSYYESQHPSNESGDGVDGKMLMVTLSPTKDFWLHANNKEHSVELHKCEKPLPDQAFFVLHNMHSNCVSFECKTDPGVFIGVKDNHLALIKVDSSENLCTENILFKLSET", "assay": "SPR 37C, pH6.0 chase, mAb captured", "procedure": "(§1) Equilibrium dissociation constants (KD values) for IL-33 binding to purified anti-IL-33 monoclonal antibodies were determined using a real-time surface plasmon resonance biosensor using a Biacore 4000 instrument. The Biacore sensor surface was first derivatized by amine coupling with either a polyclonal rabbit anti-mouse antibody (GE, # BR-1008-38) or with a monoclonal mouse anti-human Fc antibody (GE, # BR-1008-39) to capture anti-IL-33 monoclonal antibodies expressed with mouse or with human IgG4 constant regions, respectively. All Biacore binding studies were performed in 0.01M ADA pH 7.4, 0.15M NaCl, 3 mM EDTA, and 0.05% v/v Surfactant Tween-20 (ABS-ET running buffer). […] Association of either hIL-33 or MfIL-33-6His to the captured monoclonal antibody was monitored for 4 minutes and their dissociation in ABS-ET running buffer was monitored for 10 minutes. The effect of reduced pH on the binding of each anti-IL-33 antibody to either hIL-33 or MfIL-33-6His was studied using an in-line pH chase assay format in 0.01M ADA pH 6.0, 0.15M NaCl, 3 mM EDTA, and 0.05% v/v Surfactant Tween-20 (ABS-ET pH6 buffer). To achieve this, association of either hIL-33 or MfIL-33-6His to the captured monoclonal antibody was monitored for 4 minutes in ABS-ET running buffer. Following a 30 second dissociation of either hIL-33 or MfIL-33-6His in ABS-ET running buffer, ABS-ET pH6 buffer was injected for 3 minutes, and the analyte dissociation under the low-pH conditions was measured. All the binding kinetic experiments were performed at both 25° C. and 37° C. Kinetic association (kₐ) and dissociation (kd) constants were determined by fitting the real-time sensorgrams to a 1:1 binding model using Scrubber 2.0c curve fitting software. Binding dissociation equilibrium constants (KD) and dissociative half-lives (t½) were calculated from the kinetic rate constants as: […]"}, "[2]": {"target": "T2, cynomolgus monkey IL-33 expressed with a C-terminal hexahistidine tag (cynomolgus monkey)", "T2 construct": "also called MfIL-33-6His; Mf-IL-33-6His", "T2 chain": "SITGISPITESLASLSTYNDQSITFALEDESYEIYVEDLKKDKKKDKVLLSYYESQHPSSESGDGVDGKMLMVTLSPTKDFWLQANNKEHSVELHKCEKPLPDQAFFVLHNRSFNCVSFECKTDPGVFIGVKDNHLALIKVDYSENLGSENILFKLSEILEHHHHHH", "assay": "SPR 37C, pH6.0 chase, mAb captured", "procedure": "as §1"}, "[3]": {"target": "T2, cynomolgus monkey IL-33 expressed with …", "assay": "BLI; captured MfIL-33-6His, mAb-1 step with Buffer", "procedure": "(§2) Binding competition between a panel of different anti-IL-33 monoclonal antibodies was determined using a real time, label-free bio-layer interferometry assay on an Octet® HTX biosensor (ForteBio, A Division of Pall Life Sciences). The experiment was performed at 25° C. using a buffer of 0.01M HEPES pH7.4, 0.15M NaCl, 3 mM EDTA, 0.05% v/v Surfactant Tween-20, and 0.1 mg/ml BSA (HBS-ET kinetics buffer) with the plate shaking at a speed of 1000 rpm. […] The antigen-captured biosensors were then saturated with a first anti-IL-33 monoclonal antibody (subsequently referred to as mAb-1) by immersion into wells containing 50 μg/mL solution of mAb-1 for 5 minutes. The biosensors were then dipped into wells containing a 50 μg/mL solution of a second anti-IL-33 monoclonal antibody (subsequently referred to as mAb-2) for 4 minutes. The biosensors were washed in HBS-ET kinetics buffer in between every step of the experiment. The real-time binding response was monitored during the experiment, and the maximum binding response for each binding step was recorded. The response of mAb-2 binding to MfIL-33-6His pre-complexed with mAb-1 was measured, and competitive/non-competitive behavior of different anti-IL-33 monoclonal antibodies with respect to each other was determined."}, "[4]": {"target": "T1, human IL-33 (R&D Systems, …)", "assay": "SPR 37C pH7.4, mAb captured", "procedure": "as §1"}, "[5]": {"target": "T2, cynomolgus monkey IL-33 expressed with …", "assay": "SPR 37C pH7.4, mAb captured", "procedure": "as §1"}, "[6]": {"target": "T2, cynomolgus monkey IL-33 expressed with …", "assay": "BLI; mAb-1 on captured MfIL-33-6His", "procedure": "as §2"}, "[7]": {"target": "T1, human IL-33 (R&D Systems, …)", "assay": "SPR 25C pH7.4, mAb captured", "procedure": "as §1"}, "[8]": {"target": "T2, cynomolgus monkey IL-33 expressed with …", "assay": "SPR 25C pH7.4, mAb captured", "procedure": "as §1"}, "[9]": {"target": "T1, human IL-33 (R&D Systems, …)", "assay": "cell-based or functional assay"}, "[10]": {"target": "T2, cynomolgus monkey IL-33 expressed with …", "assay": "cell-based or functional assay"}},
  "data": [
    {"binder": "H1M9568N (antibody, mouse IgG1, V domains shown, Human variable domains, mouse IgG1 Fc (H1M)) VH: QVLLVQSGAEVKKPGATVKVSCKASGSTFTGYYMHWVRQAPGQGLEWMGWINPNNGGTNYAQKFQGRVTMTRDTSISTAYMELSRLRSDDTAVYYCARELRYNWKSWGQGTLVTVSS VL: EIVLTQSPGTLSLSPGERVTLSCRASQSVGRPYLAWYQQIPGQAPRLLIYGASSRATDIPDRFSGNGSGTDFTLTISRLEPEDFAVYYCQQYDNSPYTFGQGTRLEIK", "values": [
      {"measurement": "koff", "setting": "[1]", "value": 0.0011, "unit": "s⁻¹"},
      {"measurement": "t½", "setting": "[1]", "value": 10, "unit": "min"},
      {"measurement": "t½ Ratio (pH 7.4/pH 6.0)", "setting": "[1]", "value": 1.1},
      {"measurement": "koff", "setting": "[2]", "value": 0.00224, "unit": "s⁻¹"},
      {"measurement": "t½", "setting": "[2]", "value": 5, "unit": "min"},
      {"measurement": "t½ Ratio (pH 7.4/pH 6.0)", "setting": "[2]", "value": 1.3},
      {"measurement": "mAb-2 Binding to the Pre-complex of mAb-1 & MfIL-33-6xHis", "setting": "[3]", "value": 0.37, "unit": "nm"},
      {"measurement": "Kd", "setting": "[4]", "value": 1.43, "unit": "nM"},
      {"measurement": "koff", "setting": "[4]", "value": 0.000961, "unit": "s⁻¹"},
      {"measurement": "kon", "setting": "[4]", "value": 672000, "unit": "M⁻¹ s⁻¹"},
      {"measurement": "t½", "setting": "[4]", "value": 12, "unit": "min"},
      {"measurement": "Kd", "setting": "[5]", "value": 4.46, "unit": "nM"},
      {"measurement": "koff", "setting": "[5]", "value": 0.00173, "unit": "s⁻¹"},
      {"measurement": "kon", "setting": "[5]", "value": 389000, "unit": "M⁻¹ s⁻¹"},
      {"measurement": "t½", "setting": "[5]", "value": 7, "unit": "min"},
      {"measurement": "mAb-1 Binding (nm)", "setting": "[6]", "value": 0.5, "unit": "nm"},
      {"measurement": "Kd", "setting": "[7]", "value": 0.184, "unit": "nM"},
      {"measurement": "koff", "setting": "[7]", "value": 0.00013, "unit": "s⁻¹"},
      {"measurement": "kon", "setting": "[7]", "value": 702000, "unit": "M⁻¹ s⁻¹"},
      {"measurement": "t½", "setting": "[7]", "value": 89, "unit": "min"},
      {"measurement": "Kd", "setting": "[8]", "value": 1.07, "unit": "nM"},
      {"measurement": "koff", "setting": "[8]", "value": 0.000261, "unit": "s⁻¹"},
      {"measurement": "kon", "setting": "[8]", "value": 244000, "unit": "M⁻¹ s⁻¹"},
      {"measurement": "t½", "setting": "[8]", "value": 44, "unit": "min"},
      {"measurement": "IC50, inhibition of 10 pM hIL-33 activation of HEK293/hST2/NFkB-luciferase cells", "setting": "[9]", "value": "2.5e-10", "unit": "M"},
      {"measurement": "IC50, inhibition of 5 pM MfIL-33-6His activation of HEK293/hST2/NFkB-luciferase cells", "setting": "[10]", "value": "3.5e-09", "unit": "M"}
    ]},
    {"binder": "H4H9640P (antibody, human IgG4, V domains shown, Human IgG4 Fc (H4H)) VH: QVQLQESGPGLVKPSETLSLTCTVSGGSISSYYWSWIRQPPGKGLELIGYIYYSGSTNYNPSLKSRVTISVDTSKNHFSLKLSSVTAADTAVYYCARSQYTSSWYGSFDIWGQGTMVTVSS VL: DIQMTQSPSSVSASVGDRVTITCRASQGISTWLAWFQQKPGKAPKLLIYAASTLQGGVPSRFSGSGSGPEFTLTISSLQPEDFATYYCQQANSFPWTFGQGTKVEIK", "values": [
      {"measurement": "koff", "setting": "[1]", "value": 0.00265, "unit": "s⁻¹"},
      {"measurement": "t½", "setting": "[1]", "value": 4, "unit": "min"},
      {"measurement": "t½ Ratio (pH 7.4/pH 6.0)", "setting": "[1]", "value": 4.6},
      {"measurement": "koff", "setting": "[2]", "value": 0.00226, "unit": "s⁻¹"},
      {"measurement": "t½", "setting": "[2]", "value": 5, "unit": "min"},
      {"measurement": "t½ Ratio (pH 7.4/pH 6.0)", "setting": "[2]", "value": 0.5},
      {"measurement": "mAb-2 Binding to the Pre-complex of mAb-1 & MfIL-33-6xHis", "setting": "[3]", "value": 0.33, "unit": "nm"},
      {"measurement": "Kd", "setting": "[4]", "value": 0.498, "unit": "nM"},
      {"measurement": "koff", "setting": "[4]", "value": 0.000573, "unit": "s⁻¹"},
      {"measurement": "kon", "setting": "[4]", "value": "1.15e+06", "unit": "M⁻¹ s⁻¹"},
      {"measurement": "t½", "setting": "[4]", "value": 20, "unit": "min"},
      {"measurement": "Kd", "setting": "[5]", "value": 5.38, "unit": "nM"},
      {"measurement": "koff", "setting": "[5]", "value": 0.00436, "unit": "s⁻¹"},
      {"measurement": "kon", "setting": "[5]", "value": 810000, "unit": "M⁻¹ s⁻¹"},
      {"measurement": "t½", "setting": "[5]", "value": 2.6, "unit": "min"},
      {"measurement": "mAb-1 Binding (nm)", "setting": "[6]", "value": 0.61, "unit": "nm"},
      {"measurement": "Kd", "setting": "[7]", "value": 0.26, "unit": "nM"},
      {"measurement": "koff", "setting": "[7]", "value": 0.000237, "unit": "s⁻¹"},
      {"measurement": "kon", "setting": "[7]", "value": 912000, "unit": "M⁻¹ s⁻¹"},
      {"measurement": "t½", "setting": "[7]", "value": 49, "unit": "min"},
      {"measurement": "Kd", "setting": "[8]", "value": 3.06, "unit": "nM"},
      {"measurement": "koff", "setting": "[8]", "value": 0.00137, "unit": "s⁻¹"},
      {"measurement": "kon", "setting": "[8]", "value": 450000, "unit": "M⁻¹ s⁻¹"},
      {"measurement": "t½", "setting": "[8]", "value": 8, "unit": "min"},
      {"measurement": "IC50, inhibition of 10 pM hIL-33 activation of HEK293/hST2/NFkB-luciferase cells", "setting": "[9]", "value": "3e-11", "unit": "M"},
      {"measurement": "IC50, inhibition of 5 pM MfIL-33-6His activation of HEK293/hST2/NFkB-luciferase cells", "setting": "[10]", "value": "1.4e-08", "unit": "M"}
    ]}
  ]
}
